The values that follow come from article PMC10244618.

Where “and” joins values, the source holds several entries; their conditions need not be identical. Equal values may be shown once.

To fix the notation:
B1: NF2 (merlin) isoform 7, human, full length (507 aa, lacks exons 2-3 = isoform-1 residues 39-121; exon-16 C-terminus), P35240-4 (parent)
chain: MAGAIASRMSFSSLKRKQPKTFTVRIVTMDAEMEFNCEVKKQILDEKIYCPPEASVLLASYAVQAKYGDYDPSVHKRGFLAQEELLPKRVINLYQMTPEMWEERITAWYAEHRGRARDEAEMEYLKIAQDLEMYGVNYFAIRNKKGTELLLGVDALGLHIYDPENRLTPKISFPWNEIRNISYSDKEFTIKPLDKKIDVFKFNSSKLRVNKLILQLCIGNHDLFMRRRKADSLEVQQMKAQAREEKARKQMERQRLAREKQMREEAERTRDELERRLLQMKEEATMANEALMRSEETADLLAEKAQITEEEAKLLAQKAAEAEQEMQRIKATAIRTEEEKRLMEQKVLEAEVLALKMAEESERRAKEADQLKQDLQEAREAERRAKQKLLEIATKPTYPPMNPIPAPLPPDIPSFNLIGDSLSFDFKDTDMKRLSMEIEKEKVEYMEKSKHLQEQLNELKTEIEALKLKERETALDILHNENSDRGGSSKHNTIKKPQAQGRRPICI

Variants of B1 are the subject of the first assay. The assay is described as follows: reverse yeast two-hybrid deep mutational scan (rY2H-seq): NF2 isoform 7 mutant library as bait mated with wild-type prey strains; selection on medium lacking adenine for non-interacting pairs; NextSeq paired-end sequencing; enrichment vs …. The note with it: with EMILIN1 (elastin microfibril interfacer 1), Q9Y6C2; yeast diploids after mating (RBait_S3 x RPrey_S3), 30 °C, selection for reporter genes on NB agar; human ABL2 co-expressed as the kinase-dead K35M mutant …; HIGHER = WEAKER BINDING (the opposite of display enrichments): higher = stronger loss of interaction: reverse Y2H selects yeast in which bait and prey do NOT interact (growth without adenine), so a …; hits-only table; scale: rY2H score; numbering: uniprot, sequence starts at 1.
For the variant M401W, the enrichment is 2.39.

Consider M401A, for which the enrichment was 2.05.

As to T473L, the enrichment came to 4.41.

As for N457L, the enrichment turned out to be 3.83.

Take A385L: the enrichment was 1.74.

In the case of A385K, the enrichment was found to be 1.6.

For the variant M431A, the enrichment came to 2.04.

For the variant M431K, the enrichment came to 2.78.

As to M431E, the enrichment was 5.53.

With I507R, the enrichment came out at 1.52.

For P399E, the enrichment was 3.23.

As to I463A, the enrichment is 5.41.

For K490E, the enrichment came out at 5.91.

L353T: the enrichment stood at 8.41.

Take L353W: the enrichment came to 1.51.

In the case of V352E, the enrichment is 1.87.

With K366A, the enrichment worked out at 3.27.

With T394L, the enrichment is 5.41.

Consider D425A, for which the enrichment was 2.63.

H491A: the enrichment stood at 5.29.

Take H491N: the enrichment was determined as 1.59.

H491K: the enrichment was 1.7.

As for G486K, the enrichment stood at 3.4.

Take L417K: the enrichment turned out to be 1.65.

In the case of K388A, the enrichment is 1.75.

Regarding L375E, the enrichment was 3.04.

Still in this assay, the particulars now being: with EMILIN1 (elastin microfibril interfacer 1), Q9Y6C2; yeast diploids after mating (RBait_S3 x RPrey_S3), 30 °C, selection for reporter genes on NB agar; human tyrosine kinase ABL2 co-expressed as the active kinase …; HIGHER = WEAKER BINDING (the opposite of display enrichments): higher = stronger loss of interaction: reverse Y2H selects yeast in which bait and prey do NOT interact (growth without adenine), so a …; hits-only table; scale: rY2H score; numbering: uniprot, sequence starts at 1.
For the variant M401W, the enrichment was 2.1 and 5.12.

As to K144L, the enrichment was 2.68.

With E264A, the enrichment was 12.8.

For L156W, the enrichment was 1.61 and 3.25.

For I329K, the enrichment is 1.63 and 1.9.

For the variant Q306E, the enrichment is 8.86.

On to R166S, for which the enrichment was found to be 8.73.

Consider R166N, for which the enrichment stood at 2.2.

On to D271L, for which the enrichment was 2.2.

For the variant T189I, the enrichment stood at 1.59.

Consider R258V, for which the enrichment stood at 2.52.

In the case of R328T, the enrichment was determined as 2.61.

On to P399E, for which the enrichment is 1.72.

In the case of D69K, the enrichment was 1.87.

For the variant Q324Y, the enrichment was determined as 1.67.

Q317R: the enrichment was determined as 1.98.

In the case of I141L, the enrichment is 7.65.

On to R268E, for which the enrichment is 8.98 and 8.09.

Turning to H491A, the enrichment came out at 2.04.

With T336K, the enrichment worked out at 4.16.

In the case of L151E, the enrichment stood at 15.6.

Consider E252K, for which the enrichment turned out to be 1.41.

In the case of G157K, the enrichment came to 3.64.

In the case of G157E, the enrichment is 5.67 and 3.65.

For E148K, the enrichment is 2.78 and 2.12.

Turning to S13F, the enrichment amounted to 1.87.

As to L375A, the enrichment came out at 4.49.

As for L375E, the enrichment came to 6.55.

In the case of L375K, the enrichment was 4.18.

R341T: the enrichment was 3.59.

As for L58P, the enrichment was 6.14.

The same assay, now with this note: with KDM1A (lysine-specific histone demethylase 1A; the table's label AOF2 is a gene synonym of KDM1A), O60341; yeast diploids after mating (RBait_S3 x RPrey_S3), 30 °C, selection for reporter genes on NB agar; human ABL2 co-expressed as the kinase-dead K35M mutant …; HIGHER = WEAKER BINDING (the opposite of display enrichments): higher = stronger loss of interaction: reverse Y2H selects yeast in which bait and prey do NOT interact (growth without adenine), so a …; hits-only table; scale: rY2H score; numbering: uniprot, sequence starts at 1.
Turning to M401A, the enrichment is 3.12.

In the case of T473L, the enrichment was 8.75.

Turning to L156W, the enrichment is 4.82 and 4.33.

As to A385L, the enrichment came to 1.79.

On to M431E, for which the enrichment came to 3.66.

Turning to D271L, the enrichment was found to be 4.25.

Regarding P399E, the enrichment is 1.77 and 4.25.

As to Q324Y, the enrichment was found to be 1.47.

Regarding L353W, the enrichment came out at 1.6.

For the variant T394L, the enrichment worked out at 13.8.

As for R268E, the enrichment was 8.2 and 3.3.

Take K388A: the enrichment is 2.24 and 3.28.

R341T: the enrichment was 2.28.

For L58P, the enrichment was determined as 7.73.

Still in this assay, the particulars now being: with KDM1A (lysine-specific histone demethylase 1A; the table's label AOF2 is a gene synonym of KDM1A), O60341; yeast diploids after mating (RBait_S3 x RPrey_S3), 30 °C, selection for reporter genes on NB agar; human tyrosine kinase ABL2 co-expressed as the active kinase …; HIGHER = WEAKER BINDING (the opposite of display enrichments): higher = stronger loss of interaction: reverse Y2H selects yeast in which bait and prey do NOT interact (growth without adenine), so a …; hits-only table; scale: rY2H score; numbering: uniprot, sequence starts at 1.
Take M401A: the enrichment is 3.23 and 2.41.

K144L: the enrichment is 3.56.

In the case of L156W, the enrichment came out at 5.87.

Turning to I329K, the enrichment came to 2.5.

A385L: the enrichment amounted to 1.94.

With R166N, the enrichment is 1.82.

In the case of P399E, the enrichment was 2.45.

With D69K, the enrichment worked out at 6.13.

In the case of R268E, the enrichment is 7.56.

Take T336K: the enrichment was 2.26 and 6.75.

For the variant E148K, the enrichment turned out to be 1.49.

Take L417K: the enrichment is 2.29.

Consider K388A, for which the enrichment is 1.43 and 2.22.

Consider L375A, for which the enrichment worked out at 3.07.

With L375E, the enrichment is 2.39.

As to L58P, the enrichment is 4.64 and 3.28.

The assay is the same for the next values; noted with them: with PIK3R3 (phosphatidylinositol 3-kinase regulatory subunit gamma), Q92569; yeast diploids after mating (RBait_S3 x RPrey_S3), 30 °C, selection for reporter genes on NB agar; human tyrosine kinase ABL2 co-expressed as the active kinase …; HIGHER = WEAKER BINDING (the opposite of display enrichments): higher = stronger loss of interaction: reverse Y2H selects yeast in which bait and prey do NOT interact (growth without adenine), so a …; hits-only table; scale: rY2H score; numbering: uniprot, sequence starts at 1.
As to M401A, the enrichment was found to be 1.56.

As for T473L, the enrichment was found to be 4.41.

With L156W, the enrichment was 3.91 and 3.42.

In the case of I329K, the enrichment stood at 1.89.

As to A385K, the enrichment amounted to 1.74.

For the variant M431A, the enrichment turned out to be 2.23.

With R258V, the enrichment amounted to 1.6.

As to T394L, the enrichment was determined as 9.86.

As for R268E, the enrichment came out at 11.6.

On to T336K, for which the enrichment was 2.98.

Take G486K: the enrichment is 10.3.

Turning to G157K, the enrichment was determined as 7.92.

Take G157E: the enrichment was 5.03 and 2.8.

For L417K, the enrichment is 1.72.

In the case of K388A, the enrichment is 3.36.

With L375E, the enrichment amounted to 3.17.

L375K: the enrichment is 5.19.

Turning to L58P, the enrichment was 6.79 and 6.06.

Staying with this assay, now noted: with NF2 C-terminal domain (wild type; homomeric NF2-NF2 interaction), P35240; yeast diploids after mating (RBait_S3 x RPrey_S3), 30 °C, selection for reporter genes on NB agar; human ABL2 co-expressed as the kinase-dead K35M mutant …; HIGHER = WEAKER BINDING (the opposite of display enrichments): higher = stronger loss of interaction: reverse Y2H selects yeast in which bait and prey do NOT interact (growth without adenine), so a …; hits-only table; partner unresolved; scale: rY2H score; numbering: uniprot, sequence starts at 1.
Turning to T473L, the enrichment was 3.74 and 2.38.

With L156W, the enrichment is 5.5 and 4.13.

As for I329K, the enrichment is 2.98 and 2.25.

For the variant A385L, the enrichment is 1.47 and 2.16.

A385K: the enrichment is 3.03.

R258V: the enrichment stood at 1.38.

Regarding I507R, the enrichment stood at 2.16.

As for P399E, the enrichment stood at 1.43.

For the variant T394L, the enrichment was found to be 9.

As to H491K, the enrichment is 2.48.

For the variant G486K, the enrichment was determined as 5.67.

As for L375E, the enrichment was 2.55 and 4.04.

On to L375K, for which the enrichment is 6.66.

For L58P, the enrichment amounted to 2.09.
